Experimental data reported in the supplement of paper PMC9732359.
± gives the uncertainty stated by the source.

Assay: protein stability index of a GFP-peptide fusion (yeast GPS) (PSI 1-4); higher = more stable; sorted into four equal gates, so the index is relative within each strain
Procedure, shortened: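 Yeast carrying a pooled library were grown to mid-log phase in leucine-free medium. Each library plasmid expresses Cherry and has a tiled 17-residue yeast protein peptide fused downstream of GFP. Cells were sorted into four equal gates by GFP/Cherry ratio, and plasmids from each gate were PCR-amplified, Illumina-sequenced and assigned to strains by barcode. Summing, across gates, the read frequency times the gate number gave each peptide's protein stability index.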

Sequence | protein stability index (doa10∆) | protein stability index (pdr5∆) | protein stability index (san1∆) | protein stability index (ubr1∆)
LSNLHESNKRYRFFKKI [SNF12] | 2.79 ± 0.12 | 2.68 ± 0.081 | 2.9 ± 0.08 | 2.24 ± 0.065
LSQNESTRASTVPNLPT [ISW2] | 2.17 ± 0.056 | 2.5 ± 0.063 | 2.46 ± 0.045 | 2.6 ± 0.048
LSRKPSDNKKRSGSNAA [RPC82] | 2.92 ± 0.06 | 3.31 ± 0.064 | 3.03 ± 0.045 | 3.03 ± 0.044
LSSDEKRELLKRYRLKE [RPB5] | 3.08 ± 0.2 | 3.27 ± 0.17 |  | 3.52 ± 0.14
LSSELDSNKTLLHNHLK [SMC2] | 3.21 ± 0.059 | 3.26 ± 0.058 | 3.17 ± 0.048 | 3.2 ± 0.039
LSTSVGWKYEDVVAKLE [RPL16A] | 3.44 ± 0.11 | 3.29 ± 0.21 | 3.5 ± 0.14 | 3.53 ± 0.19
LTALGKEKEKEREEAEK [MED2] | 1.3 ± 0.23 | 1.43 ± 0.16 |  | 1.32 ± 0.15
LTDHRKETWLHELSSSH [SRB8] |  | 3.58 ± 0.19 |  | 2.76 ± 0.14
LTDLDSPSEFVDVAIPC [RPS0A] | 2.77 ± 0.091 | 2.46 ± 0.073 | 2.31 ± 0.077 | 2.56 ± 0.063
LTEGGSILEEKIAVLNN [SMC1] | 3.31 ± 0.22 | 2.85 ± 0.15 | 3.32 ± 0.11 | 2.87 ± 0.28
LTESQTETYISDLVNQG [RPN5] | 3.18 ± 0.076 | 3.38 ± 0.071 | 3.12 ± 0.051 | 3.21 ± 0.071
LTFNSKNIQSKDSYINA [FAS2] | 2.84 ± 0.16 | 2.72 ± 0.076 | 2.73 ± 0.17 | 2.68 ± 0.12
LTGNQLPTPTPTEMEPD [SWI1] | 2.67 ± 0.051 | 2.92 ± 0.052 | 2.51 ± 0.062 | 2.85 ± 0.03
LTHPKYLNSRIIPTTLE [YML103C/NUP188] | 2.1 ± 0.035 | 2.26 ± 0.041 | 2.05 ± 0.049 | 2.25 ± 0.036
LTNEISDLKGKLSSAEN [YIL149C/MLP2] | 3.38 ± 0.22 | 3.29 ± 0.13 |  | 3.32 ± 0.18
LTSFAEENNYQYGYSGS [SNF6] | 2.08 ± 0.064 | 2.22 ± 0.093 | 2.74 ± 0.11 | 2.48 ± 0.066
LTSVTNDICSVENYETS [SIR4] | 2.18 ± 0.052 | 2.35 ± 0.057 | 1.88 ± 0.062 | 1.84 ± 0.059
LTVDNLSIAIVGKDTPF [PRE5] | 2.9 ± 0.052 | 2.66 ± 0.05 | 2.62 ± 0.05 | 3 ± 0.037
LVDKRIDMLPMLLGTDL [DIS3] | 2.17 ± 0.083 | 2.54 ± 0.1 | 2.27 ± 0.08 | 2.34 ± 0.059
LVDQGFNYSGKDMLYSG [RET1] | 3.46 ± 0.084 | 3.29 ± 0.083 | 3.36 ± 0.052 | 3.52 ± 0.044
LVGSEIYEKLKNYLKNY [CDC53] |  | 1.21 ± 0.12 | 1.09 ± 0.16 | 
LVLPPVVTSSVAESFTD [SNF2] | 2.13 ± 0.047 | 2.02 ± 0.057 | 2.39 ± 0.084 | 2.32 ± 0.053
LVNGFSQSQQKLLKEKV [MED2] | 2.03 ± 0.055 | 2.27 ± 0.068 | 2.41 ± 0.066 | 2.61 ± 0.052
LVNIRTQTSKEQEIENN [ITC1] | 2.9 ± 0.054 | 3.05 ± 0.067 | 2.9 ± 0.061 | 3.06 ± 0.066
LVPPPRTIANQDHFHRL [RPR2] | 3.01 ± 0.086 | 3.15 ± 0.069 | 2.88 ± 0.051 | 2.93 ± 0.066
LVQKTVQESGNIDYQKG [GRR1] | 3.5 ± 0.1 | 3.37 ± 0.095 | 3.2 ± 0.09 | 3.23 ± 0.1
LVRSIIAFDDLIENKIQ [RPN8] | 1.94 ± 0.075 | 1.92 ± 0.12 | 2.45 ± 0.082 | 2.43 ± 0.099

Sequence | protein stability index (doa10∆) | protein stability index (pdr5∆) | protein stability index (san1∆) | protein stability index (ubr1∆)
LVSEKIINSTALMKEKD [RPC82] | 3.19 ± 0.17 | 3.11 ± 0.081 | 3.11 ± 0.084 | 3.27 ± 0.092
LVSVTSTLQHFQETLDS [MED8] | 2.4 ± 0.055 | 2.7 ± 0.063 | 2.43 ± 0.054 | 2.39 ± 0.048
LVVYAEDNGIVKALRNV [RPL4A] | 2.1 ± 0.14 | 3.16 ± 0.12 | 2.59 ± 0.086 | 2.57 ± 0.12
LVYDVKGRFAVHRITDE [RPS4A] | 3.25 ± 0.078 | 3.08 ± 0.11 | 3.46 ± 0.07 | 3.29 ± 0.068
LWRNFCRKLSFSDKVNA [ITC1] | 2.09 ± 0.19 | 1.76 ± 0.2 | 1.14 ± 0.23 | 1.37 ± 0.094
LYAVSTFENTNNTEKND [SIR4] | 2.37 ± 0.072 | 2.4 ± 0.075 | 2.5 ± 0.083 | 2.38 ± 0.057
LYQIWIVMVWLKENTYV [YDL116W/NUP84] | 1.85 ± 0.061 | 1.77 ± 0.062 | 2.11 ± 0.097 | 2.14 ± 0.046
LYQLFKTCIQGINSPLS [YJL039C/NUP192] | 1.83 ± 0.12 | 2.05 ± 0.087 | 1.64 ± 0.16 | 2.04 ± 0.11
LYRYRFDPFQAVSRSMT [ECM29] | 2.57 ± 0.067 | 2.65 ± 0.049 | 2.76 ± 0.057 | 2.74 ± 0.043
LYVPRKCSATNRIIKAD [RPS21A] | 3.08 ± 0.27 | 1.83 ± 0.2 | 2.13 ± 0.12 | 2.19 ± 0.15
LYYPQKPLGTTRAMEYL [RPB2] | 2.17 ± 0.089 | 2.9 ± 0.15 | 2.05 ± 0.14 | 2.83 ± 0.06
MAISKNLPILKNHFRKH [RPL13A] | 2.89 ± 0.1 | 2.89 ± 0.079 | 2.87 ± 0.081 | 2.54 ± 0.19
MAKCLDNPDQGISDMCR [YCS4] | 3.39 ± 0.19 | 3.55 ± 0.13 | 3.33 ± 0.13 | 3.2 ± 0.15
MANIPERIINVGVIGPL [SNU114] | 2.18 ± 0.28 | 2.79 ± 0.16 |  | 3.07 ± 0.077
MAPFRQDSILIIYPRSQ [ARP9] | 2.41 ± 0.28 | 2.69 ± 0.17 | 2.82 ± 0.083 | 2.58 ± 0.076
MAPSAKATAAKKAVVKG [RPL25] |  | 2.56 ± 0.15 |  | 
MAQNKTHIPQTNLKNHP [YLR018C/POM34] | 3.12 ± 0.082 | 2.98 ± 0.057 | 2.75 ± 0.058 | 2.85 ± 0.04
MASLPHPKIVKKHTKKF [RPL32] | 2.41 ± 0.088 | 2.97 ± 0.093 | 2.22 ± 0.088 | 2.83 ± 0.075
MASRVDETTVPSYYYYV [ROX3] | 1.48 ± 0.07 | 2.24 ± 0.05 | 1.94 ± 0.096 | 1.94 ± 0.069
MAVGKNKRLSKGKKGQK [RPS1A] | 1.5 ± 0.14 | 1.62 ± 0.086 | 1.65 ± 0.15 | 1.45 ± 0.12
MAYFDENLNRNWRGREH [BRN1] | 3.25 ± 0.099 | 3.41 ± 0.16 | 2.99 ± 0.091 | 3.14 ± 0.095
MDALTLMKCCHEAYSII [RRP45] | 1.77 ± 0.063 | 2.04 ± 0.071 | 1.84 ± 0.099 | 1.76 ± 0.12
MDIILGIRVQDSVILAS [PRE1] | 1.47 ± 0.23 | 1.62 ± 0.2 | 1.71 ± 0.24 | 1.4 ± 0.11
MDLLKFSSLAISEINFL [CSI1] | 2.1 ± 0.045 | 2.49 ± 0.037 | 2.16 ± 0.053 | 2.35 ± 0.047
MDPGAPLPVETPRDRRK [SSN2] |  |  | 3.25 ± 0.25 | 
MEDIEKIKPYVRSFSKA [LRP1] | 2.64 ± 0.062 | 3 ± 0.05 | 2.51 ± 0.069 | 2.74 ± 0.038
